This note sets out measurements from PMC2737688.

Where a chain is given by its changes, count along the chain named. Names and notes keep the numbering of the source. A value given as a limit tells only on which side of the number the result lay.

Assay [1] addresses BK α subunit (mSlo1) pseudo-wild-type with N200C (S3-S4 loop) (mouse). The assay is described as follows: cross-linking.
For assay [2], the target named is BK α subunit (mSlo1) pseudo-wild-type with K296C (S6 flank) (mouse). The assay can be described thus: cross-linking.

B1: BK β4 subunit pseudo-wild-type with A43C (TM1 flank), 3X FLAG (natural protein)
chain: MAKLRVAYEYTEAEDKSIRLGLFLIISGVVSLFIFGFAWLSPCLQDLQATEANCTVLSVQQIGEVFECTFTCGADCRGTSQYPCVQVYVNNSESNSRALLHSDEHQLLTNPKCSYIPPCKRENQKNLESVMNWQQYWKDEIGSQPFTCYFNQHQRPDDVLLHRTHDEIVLLHAFLWPLVTFVVGVLIVVLTICAKSLAVKAEAMKKRKFS
As to B1, the extent of disulfide crosslinking in assay [1] stood at 30%.

B2: BK β4 subunit pseudo-wild-type with V169C (TM2 flank), 3X FLAG (natural protein)
chain: B1 chain with C43A, V169C
For B2, the extent of disulfide crosslinking in assay [2] was below 30%.
